Series [1] has as its target N-terminally His-tagged antitoxin GraA (Pseudomonas putida). As to the kind of experiment: crystal structure; crystal of hisGraA2, 1.96 Å, data at 100 K.
For series [2] the target is unchanged. Description: crystal structure; crystal of hisGraA2 with the 33 bp graTA operator DNA, 3.8 Å, data at 100 K.
For series [3] the target is unchanged. Description: native MS; GraA2 (20 μM dimer) mixed with operator DNA duplex at 1:1, 2:1 and 4:1, 40 mM ammonium acetate pH 7, nano-electrospray.
The target in series [4] is T1, GraA (antitoxin; His-GraA2) (Pseudomonas putida (PaW85?)) (UniProt Q88MI6).
T1 sequence: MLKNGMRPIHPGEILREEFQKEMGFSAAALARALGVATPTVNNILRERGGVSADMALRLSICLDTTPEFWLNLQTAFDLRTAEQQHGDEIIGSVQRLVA
As to the kind of experiment: ITC. The note with it: ITC: 50 mM Tris pH 8.0, 250 mM NaCl, 2 mM β-mercaptoethanol (TCEP in purification for ITC), 25 °C; EMSA: 5 µM DNA, 30 min at room temperature, 6% native PAGE …. For orientation: Mobility shift assays separate free from complexed probe on a gel.

The target of series [5] is untagged antitoxin GraA co-expressed with His-tagged GraT (Pseudomonas putida). As to the kind of experiment: crystal structure; crystal of the co-expressed and co-purified hisGraT2A2 complex, 2.2 Å, data at 100 K.
In series [6] the target is T2, GraA (antitoxin; His-GraA2) (Pseudomonas putida, UniProt Q88MI6 1-99).
T2 sequence: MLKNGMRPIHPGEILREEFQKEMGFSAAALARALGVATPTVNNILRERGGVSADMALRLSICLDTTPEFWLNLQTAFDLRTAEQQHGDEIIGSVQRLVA
As to the kind of experiment: ITC; macroscopic; ITC: 50 mM Tris pH 8.0, 250 mM NaCl, 2 mM β-mercaptoethanol (TCEP in purification for ITC), 25 °C; EMSA: 5 µM DNA, 30 min at room temperature, 6% native PAGE in TBE on ice. The conditions noted are these: protein: recombinant; tags: N-terminal His6; chain copies: 4.

Series [7] has as its target T2, GraA (antitoxin; His-GraA2). As to the kind of experiment: ITC; N.D., binding too weak; ITC: 50 mM Tris pH 8.0, 250 mM NaCl, 2 mM β-mercaptoethanol (TCEP in purification for ITC), 25 °C; EMSA: 5 µM DNA, 30 min at room temperature, 6% native PAGE in TBE on ice. The note with it: protein: recombinant; tags: N-terminal His6; chain copies: 4.
In series [8] the target is T3, GraT (toxin) in GraT2A2 complex;GraA (untagged) in GraT2A2 complex (Pseudomonas putida;Pseudomonas putida, UniProt Q88MI5;Q88MI6 1-92;1-99, |).
T3 sequence 1: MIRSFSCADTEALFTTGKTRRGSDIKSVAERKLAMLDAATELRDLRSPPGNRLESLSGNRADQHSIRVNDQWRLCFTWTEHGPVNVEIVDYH
T3 sequence 2: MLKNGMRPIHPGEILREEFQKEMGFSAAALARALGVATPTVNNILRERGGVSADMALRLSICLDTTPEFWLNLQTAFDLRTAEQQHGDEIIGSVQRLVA
As to the kind of experiment: ITC; macroscopic; ITC: 50 mM Tris pH 8.0, 250 mM NaCl, 2 mM β-mercaptoethanol (TCEP in purification for ITC), 25 °C; EMSA: 5 µM DNA, 30 min at room temperature, 6% native PAGE in TBE on ice. The note with it: protein: recombinant;recombinant; tags: N-terminal His6;none; chain copies: 2;2. Background: Isothermal titration calorimetry measures the heat released or taken up as one component is titrated into another.

Series [9] addresses T2, GraA (antitoxin; His-GraA2). Description: ITC; macroscopic, 2 dimers per DNA; text also gives 3.1e13; ITC: 50 mM Tris pH 8.0, 250 mM NaCl, 2 mM β-mercaptoethanol (TCEP in purification for ITC), 25 °C; EMSA: 5 µM DNA, 30 min at room temperature, 6% native PAGE in TBE on ice. The note with it: protein: recombinant; tags: N-terminal His6; chain copies: 4.

For orientation: stoichiometry N means the number of molecules, sites or subunits per partner or assembly. For “N-terminally His-tagged antitoxin GraA (natural protein)”, the stoichiometry N in series [1], in series [2] and in series [3] was 2 in each case. “AAATTAACGAATAACGTTATTCGTTAATTT (double strand) [Left side mirrored]” had a Ka in [4] of 5.2e+12 M^-2. Still for that read-out and setting: in the case of “AGCTGAATGCTTAACGTTAAGCATTCAGCT (double strand) [Right side mirrored]” it was 3.5e+12 M^-2. Molecule “untagged antitoxin GraA co-expressed with His-tagged GraT (natural protein)” displayed a stoichiometry N in series [5] of 2.

B1: Variant 4 (dsDNA)
DNA 1: AAAGGCACGAATAACGTTAAGCATTCAGCT
DNA 2: AGCTGAATGCTTAACGTTATTCGTGCCTTT
On to B1, for which the Ka in series [6] is 4.3e+13 M^-2.

B2: Variant 6 (dsDNA)
DNA 1: AAATTAACGAATAACGTTAAGCCGGCAGCT
DNA 2: AGCTGCCGGCTTAACGTTATTCGTTAATTT
Turning to B2, the Ka in series [6] is 1.5e+13 M^-2.

B3: Variant 1 (dsDNA)
DNA 1: AAATTAACGAATAACGGGCCGCATTCAGCT
DNA 2: AGCTGAATGCGGCCCGTTATTCGTTAATTT
Consider B3, for which the Ka in series [6] was 2.1e+09 M^-2.

B4: Upstream half (dsDNA)
DNA 1: AAATTAACGAATAACGTTAAG
DNA 2: CTTAACGTTATTCGTTAATTT
Take B4: the binding result in [7] was “no binding”.

B5: Variant 3 (dsDNA)
DNA 1: AAATTAACGAATAGTGTTAAGCATTCAGCT
DNA 2: AGCTGAATGCTTAACACTATTCGTTAATTT
With B5, the Ka in [6] came to 3.9e+11 M^-2.

B6: Downstream half (dsDNA)
DNA 1: AATAACGTTAAGCATTCAGCT
DNA 2: AGCTGAATGCTTAACGTTATT
Take B6: in series [7], the binding result is reported as “no binding”.

B7: graTA operator wild type 33 bp (dsDNA)
DNA 1: AAATTAACGAATAACGTTAAGCATTCAGCTCAT
DNA 2: ATGAGCTGAATGCTTAACGTTATTCGTTAATTT
B7: the Ka in series [8] is < 1e+07 M^-2; in series [9] it was 3e+13 M^-2.

B8: Variant 5 (dsDNA)
DNA 1: AAATTAACGCCGAACGTTAAGCATTCAGC
DNA 2: GCTGAATGCTTAACGTTCGGCGTTAATTT
Turning to B8, the Ka in series [6] was determined as 7.1e+12 M^-2.

B9: Central palindrome (dsDNA)
DNA 1: GAATAACGTTAAG
DNA 2: CTTAACGTTATTC
As to B9, the binding result in [7] is “no binding”.

B10: Variant 2 (dsDNA)
DNA 1: AAATTAACGAAGCCCGTTAAGCCGGCAGCT
DNA 2: AGCTGCCGGCTTAACGGGCTTCGTTAATTT
In the case of B10, the Ka in series [6] worked out at 4.7e+11 M^-2.

Values taken from paper PMC6393540, “A dual role in regulation and toxicity for the disordered N-terminus of the toxin GraT”.
